Reference: patent US20220257706A1, “EPIDERMAL GROWTH FACTOR RECEPTOR (EGFR) LIGANDS” (NANYANG TECHNOLOGICAL UNIVERSITY, priority 2019, published 2022)

Legend:
[1] = molecular target: EGFR of HaCaT (human keratinocyte) cells (human), P00533; assay: cell-based or functional assay
[2] = molecular target: EGFR-Fc, P00533; assay: TR-FRET competitive displacement of biotin-EGF from EGFR-Fc

HaCaT cell proliferation (crystal violet, 72 h), EC50 [1]: 130 nM
IC50 [2]: 1720 nM
Binder: QCKPNGAKCTEISIPPCCSNFCLRYAGQKSGTCANR (modifications not checked) [bleogen pB1]
